Experimental data taken from patent publication US20140286957A1 (Teva, published 2014).
Like-named read-outs stand apart in the source and are kept apart here.

Assays:
Human CD1d/β2M [1] = molecular target: T1, Human CD1d/β2M (human, UniProt P15813 20-301; P61769 21-119); experiment: SPR, Protein A purified IgG
T1 construct: also called hCD1d; recombinant human CD1d

[2] = molecular target: Cynomolgus macaque CD1d on cells (cynomolgus macaque); experiment: flow cytometry, biotinylated antibody and streptavidin-PE on cynomolgus PBMC, gated live cells
[3] = molecular target: T2, CD1d tetramer loaded with α-GalCer (ProImmune) (UniProt P15813 20-301, limits assumed); experiment: flow cytometry, inhibition of CD1d tetramer (10 nM) binding to NKTCR on J.RT3-T3.5 cells
T2 construct: Bought reagent; also called fluorochrome-conjugated CD1d tetramer
T2 sequence (looked up): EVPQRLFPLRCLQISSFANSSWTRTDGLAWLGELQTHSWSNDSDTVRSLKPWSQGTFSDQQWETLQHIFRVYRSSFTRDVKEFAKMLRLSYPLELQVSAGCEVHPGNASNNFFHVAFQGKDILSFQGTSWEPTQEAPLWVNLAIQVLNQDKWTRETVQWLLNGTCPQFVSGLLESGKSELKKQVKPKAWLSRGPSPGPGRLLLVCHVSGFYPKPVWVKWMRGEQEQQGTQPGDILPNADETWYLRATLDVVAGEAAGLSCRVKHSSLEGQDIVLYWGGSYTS
Experimental: To perform the assay, antibodies were prepared at decreasing concentrations from 10 μg/mL in 0.1% bovine serum albumin (BSA) in cold 1×PBS at pH 7.4. […] Wash steps were done in 0.1% BSA in 1×PBS. Data were acquired by flow cytometry and analyzed using flow cytometry analysis software (FlowJo® Treestar, Inc.).

Human CD1d on cells [4] = molecular target: T3, Human CD1d on cells (human, UniProt P15813 20-335); experiment: cell-based or functional assay
T3 sequence (looked up): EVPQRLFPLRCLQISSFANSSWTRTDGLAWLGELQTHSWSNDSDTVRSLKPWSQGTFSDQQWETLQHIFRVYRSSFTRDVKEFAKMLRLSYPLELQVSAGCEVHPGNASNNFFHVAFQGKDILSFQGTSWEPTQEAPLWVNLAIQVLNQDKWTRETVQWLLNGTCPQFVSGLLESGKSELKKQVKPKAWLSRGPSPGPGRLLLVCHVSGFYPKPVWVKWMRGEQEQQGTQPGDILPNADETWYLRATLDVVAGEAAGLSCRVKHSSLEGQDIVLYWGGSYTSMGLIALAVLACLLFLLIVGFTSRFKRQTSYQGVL

Human CD1d/β2M [5] = molecular target: T1, Human CD1d/β2M; experiment: SPR, IgG captured, CD1d/β2M analyte
Experimental: Purified antibodies were also subjected to full kinetic characterization using a BIACORE™ T100 biosensor (GE Healthcare). Approximately 10,000 RU of anti-human IgG (Invitrogen cat# H10500) was immobilized on a CM5 Series S Sensor chip, using standard amine coupling chemistry in flow cell (FC) 1 and FC2 (or alternatively FC3 and FC4) of the BIACORE™ T100 Biosensor. The running buffer used was HBS-EP-1-(GE Healthcare) and interactions measured at 25° C. Peak purified IgGs were diluted to 10 nM in running buffer, and captured on FC2 (or alternatively FC4) at a flow rate of 10 μL/min in order to capture 50-80 RU of IgG. […] The contact time for association was 120 sec and dissociation measured for 20 mins for the highest concentration and 240 sec for all other concentrations in the series. The sensorgram data from FC2 was subtracted from FC1 and a buffer only control.

Human CD1d on cells [6] = molecular target: T3, Human CD1d on cells; experiment: cell-based or functional assay; remark: listed apart in the source
Human CD1d on cells [7] = molecular target: T3, Human CD1d on cells; experiment: cell-based or functional assay; remark: listed apart in the source
Human CD1d on cells [8] = molecular target: T3, Human CD1d on cells; experiment: cell-based or functional assay; remark: listed apart in the source
hCD1dmu = molecular target: T4, hCD1dmu (human with mouse segments); experiment: direct ELISA, plate coated with 1 µg/mL CD1d construct, HRP anti-human IgG (H+L) detection
T4 chain: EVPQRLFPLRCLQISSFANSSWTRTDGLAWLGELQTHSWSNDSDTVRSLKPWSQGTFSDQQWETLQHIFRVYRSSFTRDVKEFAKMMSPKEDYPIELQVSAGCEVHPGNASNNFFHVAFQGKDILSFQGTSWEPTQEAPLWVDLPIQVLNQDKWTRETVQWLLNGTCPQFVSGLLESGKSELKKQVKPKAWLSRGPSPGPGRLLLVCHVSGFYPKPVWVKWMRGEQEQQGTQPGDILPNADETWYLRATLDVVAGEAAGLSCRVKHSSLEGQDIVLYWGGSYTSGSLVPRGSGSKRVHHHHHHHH

Human CD1d/β2M [9] = molecular target: T1, Human CD1d/β2M; experiment: as above
mCD1dhu [10] = molecular target: T5, mCD1dhu (mouse with human segments); experiment: as above
T5 chain: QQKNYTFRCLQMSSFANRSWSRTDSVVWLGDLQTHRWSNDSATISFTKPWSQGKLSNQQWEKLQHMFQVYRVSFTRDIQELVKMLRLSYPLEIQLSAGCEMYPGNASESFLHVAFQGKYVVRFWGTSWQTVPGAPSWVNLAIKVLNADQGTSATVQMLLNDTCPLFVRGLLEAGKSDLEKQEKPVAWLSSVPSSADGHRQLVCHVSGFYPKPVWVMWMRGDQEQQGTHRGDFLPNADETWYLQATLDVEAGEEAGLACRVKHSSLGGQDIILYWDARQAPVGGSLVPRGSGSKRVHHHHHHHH

Mouse CD1d [11] = molecular target: T6, Mouse CD1d (mouse, UniProt P11609 22-305); experiment: as above
T6 construct: Murine CD1d extracellular domain construct, HEK-293E; also called mCD1d; murine CD1d
T6 sequence: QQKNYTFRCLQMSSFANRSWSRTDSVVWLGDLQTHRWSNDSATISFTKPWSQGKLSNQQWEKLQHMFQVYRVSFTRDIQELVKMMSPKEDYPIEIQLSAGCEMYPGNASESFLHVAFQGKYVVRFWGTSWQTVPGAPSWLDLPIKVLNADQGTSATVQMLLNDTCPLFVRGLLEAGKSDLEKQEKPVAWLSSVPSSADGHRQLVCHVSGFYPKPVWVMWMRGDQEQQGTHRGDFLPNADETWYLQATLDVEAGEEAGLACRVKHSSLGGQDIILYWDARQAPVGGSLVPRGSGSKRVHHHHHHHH

Human CD1d on cells [12] = molecular target: T3, Human CD1d on cells; experiment: cell-based or functional assay; remark: listed apart in the source
Human CD1d on cells [13] = molecular target: T3, Human CD1d on cells; experiment: cell-based or functional assay; remark: listed apart in the source
Human CD1d on cells [14] = molecular target: T3, Human CD1d on cells; experiment: cell-based or functional assay; remark: listed apart in the source
Human CD1d on cells [15] = molecular target: T3, Human CD1d on cells; experiment: cell-based or functional assay; remark: listed apart in the source
Human CD1d/β2M [16] = molecular target: T1, Human CD1d/β2M; experiment: SPR
Human CD1d/β2M [17] = molecular target: T1, Human CD1d/β2M; experiment: direct ELISA, plate coated with 1 µg/mL CD1d construct, HRP anti-human IgG (H+L) detection; remark: listed apart in the source
mCD1dhu [18] = molecular target: T5, mCD1dhu; experiment: as above
Mouse CD1d [19] = molecular target: T6, Mouse CD1d; experiment: as above; remark: listed apart in the source
Human CD1d on cells [20] = molecular target: T3, Human CD1d on cells; experiment: cell-based or functional assay; remark: listed apart in the source
Human CD1d on cells [21] = molecular target: T3, Human CD1d on cells; experiment: cell-based or functional assay; remark: listed apart in the source
Human CD1d on cells [22] = molecular target: T3, Human CD1d on cells; experiment: cell-based or functional assay; remark: listed apart in the source

B1: 402.8 (antibody, V domains shown)
VH: QVQLQESGPGLVRPSETLSLTCAVYGGSFSGYYWSWIRQPPGKGLEWIGEINHSGSTNYNPSLKSRVTISVDTSKNQFSLKLSSVTAADTAVYYCARGEIYDFWNSYMDVWGKGTTVTVSS
VL: QTVVTQEPSLTVSPGGTVTLTCASSSGAVSSGNFPNWFQQKPGQAPRALIFSASNKHSWTPARFSGSLLGGKAVLTLSGVQPEDEAEYYCLLYFGDTQLGVFGGGTKVTVLG
notes: Human IgG4 (S228P); biotinylated or Pacific Blue labelled in some assays
Kd (Human CD1d/β2M [1]): 0.145 nM
percent CD1d-positive cells, Donor 1 [2]: 81.3%
percent CD1d-positive cells, Donor 2 [2]: 64%
EC50 [3]: 165 ng/mL
IFN-γ EC50 (THP-1) (Human CD1d on cells [4]): 2.4 ng/mL
IL-4 EC50 (THP-1) (Human CD1d on cells [4]): 1.7 ng/mL
IL-5 EC50 (THP-1) (Human CD1d on cells [4]): 1.2 ng/mL
IL-13 EC50 (THP-1) (Human CD1d on cells [4]): 1.5 ng/mL
Kd (Human CD1d/β2M [5]): 0.304 nM
koff (Human CD1d/β2M [5]): 0.000161 s⁻¹
kon (Human CD1d/β2M [5]): 530000 M⁻¹ s⁻¹
IFN-γ EC50 (C24:1 βGluCer, moDC) (Human CD1d on cells [6]): 0.995 ng/mL
IL-4 EC50 (C24:1 βGluCer, moDC) (Human CD1d on cells [6]): 0.636 ng/mL
IL-5 EC50 (C24:1 βGluCer, moDC) (Human CD1d on cells [6]): 0.929 ng/mL
IL-13 EC50 (C24:1 βGluCer, moDC) (Human CD1d on cells [6]): 2.94 ng/mL
TNF-α EC50 (C24:1 βGluCer, moDC) (Human CD1d on cells [6]): 1.51 ng/mL
IFN-γ EC50 (primary CD14+ cells) (Human CD1d on cells [7]): 28.6 ng/mL
IL-4 EC50 (primary CD14+ cells) (Human CD1d on cells [7]): 4 ng/mL
IL-5 EC50 (primary CD14+ cells) (Human CD1d on cells [7]): 6.9 ng/mL
IL-13 EC50 (primary CD14+ cells) (Human CD1d on cells [7]): 39.9 ng/mL
IL-2 release EC50 (U-937 + NKTCR cell line) (Human CD1d on cells [8]): 4.5 ng/mL
binding result (hCD1dmu): no binding (tested: 10 µg/mL)
EC50 (read off the curve) (Human CD1d/β2M [9]): ~6 ng/mL
EC50 (read off the curve) (mCD1dhu [10]): ~5 ng/mL
binding result (Mouse CD1d [11]): no binding (tested: 10 µg/mL)
NKT IFN-γ EC50 (moDC) (Human CD1d on cells [12]): 0.105 ng/mL
NKT IL-13 EC50 (moDC) (Human CD1d on cells [12]): 0.154 ng/mL
fold potency against 51.1, IL-2 release (Human CD1d on cells [13]): ~17 fold
fold potency against antibody 42 (C24:1 βGluCer) (Human CD1d on cells [13]): ≤ 139 fold
fold potency against antibody 42 (THP-1 assay) (Human CD1d on cells [13]): ≤ 180 fold
fold potency against antibody 42 (moDC assay) (Human CD1d on cells [13]): ≤ 50 fold
fold potency against antibody 42, IL-2 release (Human CD1d on cells [13]): ~25 fold
fold potency against antibody 51.1 (C24:1 βGluCer) (Human CD1d on cells [13]): ≤ 112 fold

B2: 401.11.158 (antibody, V domains shown)
VH: QVQLVGSGGGLVKPGRSLRLSCAASGFTFDDYAMHWVRQAPGKGLEWVATIIWNSAIIGYADSVKGRFIVSRDNAKNSLYLQMNSLRAEDTALYYCAKDMCSSGGCPDGYFDSWGQGTLVTVSS
VL: DIQMTQSPSSVSASVGDRVTITCRASQHISSWLAWYQQKPGKAPKLLIYAASSLQSGVPSRFSGSGSGTDFTLTISSLQPEDFATYYCQQANRFPLTFGGGTKLEIKR
notes: IgG4 (S228P); biotinylated or Pacific Blue labelled in some assays
NKT IL-4 EC50 (moDC) (Human CD1d on cells [14]): 0.58 ng/mL
NKT IL-13 EC50 (moDC) (Human CD1d on cells [14]): 3.84 ng/mL
NKT IFN-γ EC50 (THP-1) (Human CD1d on cells [15]): 2.6 ng/mL
NKT IFN-γ EC50 (moDC) (Human CD1d on cells [15]): 3 ng/mL
NKT IL-4 EC50 (THP-1) (Human CD1d on cells [15]): 2.2 ng/mL
NKT IL-4 EC50 (moDC) (Human CD1d on cells [15]): 1.16 ng/mL
NKT IL-13 EC50 (THP-1) (Human CD1d on cells [15]): 4.35 ng/mL
Kd (Human CD1d/β2M [16]): 0.189 nM
EC50 (read off the curve) (Human CD1d/β2M [17]): ~8 ng/mL
EC50 (read off the curve) (mCD1dhu [18]): ~100 ng/mL
binding result (Mouse CD1d [19]): no binding
NKT IFN-γ EC50 (moDC) (Human CD1d on cells [20]): 2.8 ng/mL
NKT IL-4 EC50 (moDC) (Human CD1d on cells [20]): 0.432 ng/mL
NKT IL-5 EC50 (moDC) (Human CD1d on cells [20]): 0.704 ng/mL
NKT IL-13 EC50 (moDC) (Human CD1d on cells [20]): 0.598 ng/mL
NKT IFN-γ EC50 (THP-1) (Human CD1d on cells [21]): 6.4 ng/mL
NKT IL-4 EC50 (THP-1) (Human CD1d on cells [21]): 2.66 ng/mL
NKT IL-5 EC50 (THP-1) (Human CD1d on cells [21]): 4.5 ng/mL
NKT IL-13 EC50 (THP-1) (Human CD1d on cells [21]): 7.78 ng/mL
NKT TNF EC50 (THP-1) (Human CD1d on cells [21]): 4.14 ng/mL
IFN-γ EC50 (C24:1 βGluCer, moDC) (Human CD1d on cells [6]): 0.64 ng/mL
IL-4 EC50 (C24:1 βGluCer, moDC) (Human CD1d on cells [6]): 0.682 ng/mL
IL-5 EC50 (C24:1 βGluCer, moDC) (Human CD1d on cells [6]): 0.868 ng/mL
IL-13 EC50 (C24:1 βGluCer, moDC) (Human CD1d on cells [6]): 1.44 ng/mL
TNF-α EC50 (C24:1 βGluCer, moDC) (Human CD1d on cells [6]): 0.842 ng/mL
NKT IFN-γ EC50 (moDC) (Human CD1d on cells [22]): 8.16 ng/mL
NKT IL-4 EC50 (moDC) (Human CD1d on cells [22]): 2.19 ng/mL
NKT IL-5 EC50 (moDC) (Human CD1d on cells [22]): 6.13 ng/mL
NKT IL-13 EC50 (moDC) (Human CD1d on cells [22]): 9.82 ng/mL
NKT TNF EC50 (moDC) (Human CD1d on cells [22]): 4.3 ng/mL
fold improvement against 401.11 (IFN-γ, moDC) (Human CD1d on cells [13]): ~4.8 fold
fold potency against antibody 42 (C24:1 βGluCer) (Human CD1d on cells [13]): ≤ 216 fold
fold potency against antibody 51.1 (C24:1 βGluCer) (Human CD1d on cells [13]): ≤ 175 fold
